Key:
[1] = target: T1, human EGFR T790M, L858R on NCI-H1975 cells (human, UniProt P00533 25-1210); assay: cell-based or functional assay
[2] = target: T2, human EGFR (wild type) on cells (human, UniProt P00533 25-1210); assay: cell-based or functional assay
[3] = target: human EGFR L747-E749del, A750P on HCC4006 cells (human, UniProt P00533 25-1210); assay: cell-based or functional assay
[4] = target: T2, human EGFR (wild type) on cells; assay: flow cytometry, 786-O cells
[5] = target: T1, human EGFR T790M, L858R on NCI-H1975 …; assay: flow cytometry, NCI-H1975 cells
[6] = target: T1, human EGFR T790M, L858R on NCI-H1975 …; assay: cell-based or functional assay; remark: listed apart in the source
[7] = target: T2, human EGFR (wild type) on cells; assay: cell-based or functional assay; remark: listed apart in the source
cynomolgus monkey CD16a = target: T3, cynomolgus monkey CD16a (cynomolgus monkey, UniProt Q8SPW2 17-208, limits assumed); assay: SPR
T3 construct: also called cynomolgus monkey FcγRIIIa

[8] = target: T1, human EGFR T790M, L858R on NCI-H1975 …; assay: cell-based or functional assay; remark: listed apart in the source
[9] = target: T2, human EGFR (wild type) on cells; assay: cell-based or functional assay; remark: listed apart in the source
[10] = target: T2, human EGFR (wild type) on cells; assay: flow cytometry, NCI-H2172 cells
[11] = target: T2, human EGFR (wild type) on cells; assay: flow cytometry, FaDu cells
[12] = target: T4, purified recombinant human NKG2D (human, UniProt P26718 78-216, limits assumed); assay: SPR (Biacore 8K), 25 C
T4 sequence (looked up): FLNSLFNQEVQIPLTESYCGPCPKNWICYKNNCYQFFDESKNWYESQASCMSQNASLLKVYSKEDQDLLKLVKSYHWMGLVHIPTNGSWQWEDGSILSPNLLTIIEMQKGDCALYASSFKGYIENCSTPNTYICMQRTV

[13] = target: T2, human EGFR (wild type) on cells; assay: flow cytometry, Detroit 562 cells
[14] = target: T2, human EGFR (wild type) on cells; assay: flow cytometry, NCI-H292 cells
[15] = target: T1, human EGFR T790M, L858R on NCI-H1975 …; assay: cell-based or functional assay; remark: listed apart in the source
[16] = target: T2, human EGFR (wild type) on cells; assay: cell-based or functional assay; remark: listed apart in the source
recombinant rat NKG2D = target: T5, recombinant rat NKG2D (rat, UniProt O70215 75-215, limits assumed); assay: SPR
T5 sequence (looked up): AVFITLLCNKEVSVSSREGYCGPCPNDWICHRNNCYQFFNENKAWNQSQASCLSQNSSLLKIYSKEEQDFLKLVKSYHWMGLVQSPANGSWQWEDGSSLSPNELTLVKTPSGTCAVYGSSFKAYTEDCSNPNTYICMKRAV

[17] = target: T6, recombinant cynomolgus monkey NKG2D (cynomolgus monkey, UniProt P61252 78-216, limits assumed); assay: SPR
T6 sequence (looked up): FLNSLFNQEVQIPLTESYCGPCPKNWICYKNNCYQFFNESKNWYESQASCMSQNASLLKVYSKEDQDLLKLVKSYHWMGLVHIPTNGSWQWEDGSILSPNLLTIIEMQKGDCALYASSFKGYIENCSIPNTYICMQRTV

recombinant mouse NKG2D = target: T7, recombinant mouse NKG2D (mouse, UniProt O54709 94-232, limits assumed); assay: SPR
T7 sequence (looked up): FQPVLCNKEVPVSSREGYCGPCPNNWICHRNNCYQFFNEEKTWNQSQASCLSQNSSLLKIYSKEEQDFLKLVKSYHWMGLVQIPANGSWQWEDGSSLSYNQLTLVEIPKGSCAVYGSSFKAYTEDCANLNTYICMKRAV

[18] = target: T8, purified recombinant human EGFR (human, UniProt P00533 25-645); assay: SPR (Biacore 8K), 37 C
T8 construct: the whole entry is named; also called recombinant human epidermal growth factor receptor

[19] = target: T2, human EGFR (wild type) on cells; assay: flow cytometry, HCT116 cells

EC50 [4]: 3.5 nM
Max FOB [4]: 330 fold over background
EC50 [5]: 2.3 nM
Max FOB [5]: 170 fold over background
EC50, NK cell degranulation and cytokine production, human PBMCs with NCI-H1975 [6]: 0.067 nM
EC50, NK cell degranulation and cytokine production, human PBMCs with 786-O [7]: 0.089 nM
Kd (cynomolgus monkey CD16a): 80.9 nM
EC50, ADCP by M0 macrophages, NCI-H1975 [8]: 2.3 nM
EC50, ADCP by M0 macrophages, 786-O [9]: 2.2 nM
EC50 [10]: 1 nM
Max FOB [10]: 140 fold over background
EC50 [11]: 11 nM
Max FOB [11]: 1200 fold over background
Kd [12]: 482 nM
koff [12]: 0.11 s⁻¹
kon [12]: 230000 M⁻¹ s⁻¹
EC50 [13]: 1.6 nM
Max FOB [13]: 490 fold over background
EC50 [14]: 5.3 nM
Max FOB [14]: 800 fold over background
binding result (recombinant rat NKG2D): no binding
Kd [17]: 562 nM
binding result (recombinant mouse NKG2D): no binding
Kd [18]: 4.7 nM
koff [18]: 0.00095 s⁻¹
kon [18]: 200000 M⁻¹ s⁻¹
EC50 [19]: 1.4 nM
Max FOB [19]: 300 fold over background
B1: EGFR-TriNKET (bispecific antibody, human IgG1, kappa)
chain: DIQMTQSPSSLSASVGDRVTITCQASQDISNYLNWYQQKPGKAPKLLIYDASNLETGVPSRFSGSGSGTDFTFTISSLQPEDIATYYCQHFRHLPLAFGCGTKVEIKGGGGSGGGGSGGGGSGGGGSQVQLQESGPGLVKPSETLSLTCTVSGGSVSSGDYYWTWIRQSPGKCLEWIGHIYYSGNTNYNPRLKSRLTISIDTSKTQFSLKLSSVTAADTAIYYCVRDRVTGAFDIWGQGTMVTVSSGSDKTHTCPPCPAPELLGGPSVFLFPPKPKDTLMISRTPEVTCVVVDVSHEDPEVKFNWYVDGVEVHNAKTKPREEQYNSTYRVVSVLTVLHQDWLNGKEYKCKVSNKALPAPIEKTISKAKGQPREPRVYTLPPCRDELTKNQVSLTCLVKGFYPSDIAVEWESNGQPENNYKTTPPVLVSDGSFTLYSKLTVDKSRWQQGNVFSCSVMHEALHNHYTQKSLSLSPG
heavy: EVQLVESGGGLVKPGGSLRLSCAASGFTFSSYSMNWVRQAPGKGLEWVSSISSSSSYIYYADSVKGRFTISRDNAKNSLYLQMNSLRAEDTAVYYCARGAPIGAAAGWFDPWGQGTLVTVSSASTKGPSVFPLAPSSKSTSGGTAALGCLVKDYFPEPVTVSWNSGALTSGVHTFPAVLQSSGLYSLSSVVTVPSSSLGTQTYICNVNHKPSNTKVDKKVEPKSCDKTHTCPPCPAPELLGGPSVFLFPPKPKDTLMISRTPEVTCVVVDVSHEDPEVKFNWYVDGVEVHNAKTKPREEQYNSTYRVVSVLTVLHQDWLNGKEYKCKVSNKALPAPIEKTISKAKGQPREPQVCTLPPSRDELTENQVSLTCLVKGFYPSDIAVEWESNGQPENNYKTTPPVLDSDGSFFLYSWLTVDKSRWQQGNVFSCSVMHEALHNHYTQKSLSLSPG
light: DIQMTQSPSSVSASVGDRVTITCRASQGISSWLAWYQQKPGKAPKLLIYAASSLQSGVPSRFSGSGSGTDFTLTISSLQPEDFATYYCQQGVSFPRTFGGGTKVEIKRTVAAPSVFIFPPSDEQLKSGTASVVCLLNNFYPREAKVQWKVDNALQSGNSQESVTEQDSKDSTYSLSSTLTLSKADYEKHKVYACEVTHQGLSSPVTKSFNRGEC
notes: also called EGFR-TriNKET-3
EC50, short-term NK cell-mediated cytotoxicity (DELFIA), NCI-H1975 [1]: 0.1 nM
EC50, short-term NK cell-mediated cytotoxicity (DELFIA), 786-O [2]: 0.048 nM
EC50, short-term NK cell-mediated cytotoxicity (DELFIA), BT474 [2]: 0.29 nM
EC50, short-term NK cell-mediated cytotoxicity (DELFIA), Detroit 562 [2]: 0.058 nM
EC50, short-term NK cell-mediated cytotoxicity (DELFIA), FaDu [2]: 0.011 nM
EC50, short-term NK cell-mediated cytotoxicity (DELFIA), HCT116 [2]: 0.054 nM
EC50, short-term NK cell-mediated cytotoxicity (DELFIA), HT29 [2]: 0.019 nM
EC50, short-term NK cell-mediated cytotoxicity (DELFIA), KYSE-30 [2]: 0.0053 nM
EC50, short-term NK cell-mediated cytotoxicity (DELFIA), NCI-H292 [2]: 0.0088 nM
EC50, short-term NK cell-mediated cytotoxicity (DELFIA), NCI-H1703 [2]: 0.022 nM
EC50, short-term NK cell-mediated cytotoxicity (DELFIA), NCI-H2172 [2]: 0.079 nM
EC50, short-term NK cell-mediated cytotoxicity (DELFIA), HCC4006 [3]: 0.092 nM
EC50, long-term NK cell-mediated cytotoxicity, NCI-H1975, NK CD16a F/F (n = 2) [15]: 0.23 nM
EC50, long-term NK cell-mediated cytotoxicity, NCI-H1975, NK CD16a V/F (n = 1) [15]: 0.09 nM
EC50, long-term NK cell-mediated cytotoxicity (IncuCyte, 72 h, 50% human serum), KYSE-30, NK CD16a F/F (n = 2) [16]: 0.015 nM
EC50, long-term NK cell-mediated cytotoxicity, 786-O, NK CD16a F/F (n = 2) [16]: 0.24 nM
EC50, long-term NK cell-mediated cytotoxicity, 786-O, NK CD16a V/F (n = 1) [16]: 0.15 nM
EC50, long-term NK cell-mediated cytotoxicity, HCT116, NK CD16a F/F (n = 2) [16]: 0.28 nM
EC50, long-term NK cell-mediated cytotoxicity, HCT116, NK CD16a V/V (n = 1) [16]: 0.21 nM
EC50, long-term NK cell-mediated cytotoxicity, KYSE-30, NK CD16a V/F (n = 1) [16]: 0.013 nM
